Legend:
[1] = test system: MSCs; test: MSC attachment to substrate-bound tropoelastin (EDTA inhibition, cation add-back); assay type: cell-based, Human; settings: cation-free environment
Protocol: MSCs were seeded at a density of 1.5×10^5 cells/cm^2 on tropoelastin-coated wells in serum-free α-MEM containing 0-9 mM ethylenediaminetetraacetic acid (EDTA) (Sigma-Aldrich®). The cells were incubated for 1 hour at 37° C., then washed with PBS to remove unbound cells. Bound cells were fixed, stained and measured for absorbance at 570 nm as described for the proliferation assays. The percentage of cell attachment was determined relative to a set of standards with known cell numbers.
MSCs were washed with cation-free PBS, centrifuged at 270 g for 5 min, and resuspended in cation-free PBS. The cells were seeded at a density of 1.5×10^5 cells/cm^2 on tropoelastin-coated wells in the presence of 0-0.5 mM cation (Mg^2+, Ca^2+ or Mn^2+) and incubated for 45 min at 37° C. Bound cells were fixed and stained, and cell attachment was quantified as previously described.

[2] = test system: Human bone marrow-derived MSCs; test: MSC proliferation (crystal violet cell abundance); assay type: cell-based
Protocol: Human bone marrow-derived MSCs obtained from American Type Culture Collection (ATCC) were cultured in normal media, which consists of Alpha-Minimum Essential Medium (α-MEM) (Lonza) with 10% (v/v) FBS (Life Technologies) and 2.4 mM L-glutamine (Lonza), at 37° C. in a humidified normoxic incubator up to a maximum of 10 population doublings. Where indicated, the normal media was supplemented with 15 ng/mL IGF-1 (Life Technologies) and/or […] bFGF (Life Technologies), equivalent to the growth factor concentrations in the ATCC-recommended media. Cells were passaged once they reach 70-80% confluence.
Where indicated, tissue culture plastic wells were coated with 20 μg/mL recombinant human tropoelastin (Elastagen) or 2 μg/mL fibronectin (Sigma-Aldrich®) in PBS (10 mM phosphate, 150 mM NaCl, pH 7.4) at 4° C. overnight. The protein solution was removed, and wells were washed three times with PBS to remove unbound protein prior to cell seeding.
[…] To prevent protein adhesion on the tissue culture substrate, wells were pre-incubated with normal media for 5 hours to enable surface blocking by serum proteins prior to cell seeding in supplemented media.
Sub-confluent flasks of MSCs were treated with 0.05% (v/v) trypsin-EDTA (Sigma-Aldrich®) at 37° C. for 5 min to lift off adherent cells from the culture vessel. Trypsin was neutralized with two volumes of serum-containing growth media. Cells were centrifuged at 270 g for 5 min and resuspended in the required media. Cells were seeded at a density of 5000 cells/cm^2 on bare or protein-coated tissue culture plastic wells, in normal or supplemented media. Media was changed every 2 days. After specific time points, cells were fixed with 3% (v/v) formaldehyde at room temperature for 20 min, washed with PBS, then stained with 0.1% (w/v) crystal violet in 0.2 M MES buffer for 1 hour. Excess stain was washed off four times with reverse osmosis water. The retained stain was solubilized with 10% (v/v) acetic acid and sample absorbance values indicative of cell abundance were read at 570 nm. Sample absorbance values were subtracted by baseline values (corresponding to cell numbers in serum-free media, or cell numbers on day 1 post-seeding) and expressed as a fraction of the highest absorbance among all samples on day 7 post-seeding.

[3] = test system: MSCs; test: Cell migration via haptotaxis; assay type: cell-based, Human; settings: 5 days post-seeding
Protocol: Polydimethylsiloxane (PDMS) was casted into 3D printed molds to create a circular shape with three rectangular cutouts, in which the middle rectangle was equidistant from the flanking rectangles. The PDMS stencil was placed inside a well plate and pressed tightly against the well surface to create watertight seal. The top and bottom rectangular chambers were filled with tropoelastin solution (20 μg/mL) or PBS, respectively, and air dried overnight. MSCs (1.2×10^6 cells/cm^2) were seeded into the middle chamber and allowed to attach for at least 2 hrs. The PDMS stencil was removed, and the culture well was covered with normal media. For up to 5 days, cells were stained daily with NucBlue™ Live ReadyProbes™ Reagent (Life Technologies) for 15 min, washed once with PBS, covered with normal media, and imaged under fluorescence at 360/460 nm using a Nikon Ti-E Live Cell Microscope. Cell migration into regions defined by tropoelastin or PBS coating was quantified via relative fluorescent areas using ImageJ software.

[4] = tropoelastin substrate, normal media
[5] = tropoelastin substrate, unsupplemented 7% FBS media, 7 days

B1: recombinant human tropoelastin (Elastagen) (ligand, UniProt P15502-2 27-724, looked up)
chain: GGVPGAIPGGVPGGVFYPGAGLGALGGGALGPGGKPLKPVPGGLAGAGLGAGLGAFPAVTFPGALVPGGVADAAAAYKAAKAGAGLGGVPGVGGLGVSAGAVVPQPGAGVKPGKVPGVGLPGVYPGGVLPGARFPGVGVLPGVPTGAGVKPKAPGVGGAFAGIPGVGPFGGPQPGVPLGYPIKAPKLPGGYGLPYTTGKLPYGYGPGGVAGAAGKAGYPTGTGVGPQAAAAAAAKAAAKFGAGAAGVLPGVGGAGVPGVPGAIPGIGGIAGVGTPAAAAAAAAAAKAAKYGAAAGLVPGGPGFGPGVVGVPGAGVPGVGVPGAGIPVVPGAGIPGAAVPGVVSPEAAAKAAAKAAKYGARPGVGVGGIPTYGVGAGGFPGFGVGVGGIPGVAGVPGVGGVPGVGGVPGVGISPEAQAAAAAKAAKYGVGTPAAAAAKAAAKAAQFGLVPGVGVAPGVGVAPGVGVAPGVGLAPGVGVAPGVGVAPGVGVAPGIGPGGVAAAAKSAAKVAAKAQLRAAAGLGAGIPGLGVGVGVPGLGVGAGVPGLGVGAGVPGFGAVPGALAAAKAAKYGAAVPGVLGGLGALGGVGIPGGVVGAGPAAAAAAAKAAAKAAQFGLVGAAGLGGLGVGGLGVPGVGGLGGIPPAAAAKAAKYGAAGLGGVLGGAGQFPLGGVAARPGFGLSPIFPGGACLGKACGRKRK
- MSC adhesion to tropoelastin [1]: 20.0±2.1%
- increase in cell proliferation compared to normal media or media with IGF-1 ([2]; 1 μg/mL in solution, 7 days): 18±5%
- increase in cell proliferation compared to normal media or media with IGF-1 ([2]; 20 μg/mL in solution, 7 days): 69±7%
- improved MSC proliferation over substrate-bound tropoelastin ([2]; 20 μg/mL in solution, 7 days post-seeding): 80±8%
- increase in MSC proliferation by substrate-bound tropoelastin over TCP ([2]; 7% FBS media with IGF-1, 7 days): 49±1%
- increase in MSC proliferation by substrate-bound tropoelastin over TCP ([2]; 7% FBS media with bFGF, 7 days): 40±3%
- increase in MSC proliferation by substrate-bound tropoelastin over TCP ([2]; 7% FBS media with both growth factors, 7 days): 29±3%
- increase in MSC proliferation by substrate-bound tropoelastin over TCP ([2]; 7% FBS, unsupplemented media, 7 days): 97±19%
- tropoelastin-mediated proliferative increase over bare TCP ([2]; 10% FBS media with IGF-1, 7 days): 41±1%
- tropoelastin-mediated proliferative increase over bare TCP ([2]; 10% FBS media with IGF-1 and bFGF, 7 days): 16±3%
- tropoelastin-mediated proliferative increase over bare TCP ([2]; 10% FBS media with bFGF, 7 days): 16±2%
- serum reduction at which cell expansion remained unaffected ([2]; 7 days post-seeding, substrate-bound tropoelastin without growth factors, or IGF-1 and bFGF in media on TCP): ≤ 40%
- serum reduction at which MSC numbers significantly decreased ([2]; coated surface, until 3 days post-seeding): 80%
- increase in cell numbers on tropoelastin-coated TCP over bare TCP ([2]; normal 10% (v/v) serum media, 7 days): 39±3%
- MSC propagation relative to bFGF ([2]; soluble 5 μg/mL, until 7 days post-seeding): comparable to bFGF
- MSC expansion relative to media containing both IGF-1 and bFGF ([2]; soluble 20 μg/mL, full serum media): equivalent to that in media containing both growth factors
- more potent than bFGF for MSC propagation ([2]; soluble 20 μg/mL, until 7 days post-seeding): 18±5%
- MSC expansion surpassing bFGF ([2]; soluble, at and above 1 μg/mL, 3 days post-seeding): up to 74±2%
- improved MSC proliferation compared to IGF-1 and bFGF in tandem ([2]; substrate-bound tropoelastin, 40% decrease in serum (6% FBS), 7 days): 23±3%
- serum reduction tolerated without deleterious effects to proliferation ([2]; surface-bound tropoelastin with growth factors in media, after 5 days post-seeding): ≤ 20%
- serum reduction allowed ([2]; surface-bound tropoelastin with growth factors in media, until 5 days post-seeding): 40%
- proliferation compared to cells on TCP in media with bFGF [2, 4]: similarly
- proliferation more than cells on TCP in media with IGF-1 [2, 4]: 36±3%
- decreased expansion compared to cells on TCP in media containing both IGF-1 and bFGF ([2]; tropoelastin substrate, normal media, no additional factors): 14±2%
- abundance compared to cells on TCP in media with both growth factors [2, 5]: equivalent in abundance
- greater expansion relative to cells on TCP in media with IGF-1 [2, 5]: 59±15%
- greater expansion relative to cells on TCP in media with bFGF [2, 5]: 37±13%
- more cells migrated to the tropoelastin-coated region compared to the control [3]: 45±8%

Source: patent US20190275087A1, “EXPANSION AND DIFFERENTIATION OF STEM CELLS” (Allergan Pharmaceuticals International Limited, priority 2018, published 2019)
